Laboratory results as given in patent publication US20250215467A1, “L-THREONINE TRANSALDOLASES AND USES THEREOF” (University of Delaware, priority 2022, published 2025).

Experiment: TTA-ADH coupled assay, screen of purified TTAs on 2-nitro-benzaldehyde
Type: biochemical
Details: substrate 3, TTA-ADH coupled assay
Protocol: High-throughput screening of purified TTAs was performed with a TTA-ADH coupled assay using purified TTA and commercially available alcohol dehydrogenase from S. cerevisiae purchased from MilliporeSigma. Aldehyde stocks were prepared in 50-100 mM solutions in DMSO or acetonitrile. Reaction mixtures were prepared in a 96-well plate with 100 μL of 100 mM phosphate buffer pH 7.5, 0.5 mM NADH, 0.4 mM PLP, 15 mM MgCl2, and 100 mM L-Thr with the addition of 0.25 mM to 1 mM aldehyde depending on the background absorbance at 340 nm (Table 4), 10 U ScADH, and 0.25 μM purified TTA unless otherwise specified. Reactions were initiated with the addition of enzyme. […] The following controls were included for every assay: reaction mixture without aldehyde, without TTA, and without enzyme (TTA or ADH). Rates were calculated by identifying the linear region at the beginning of the kinetic run and converting the depletion in absorbance to the depletion of mM NADH using an NADH standard curve.
Once purified, we identified the putative TTAs with high activity and further characterized them for their L-Thr affinity and substrate scope. We first screened each purified enzyme using the TTA-ADH coupled assay with 2-nitro-benzaldehyde, 3, the best performing substrate from the screen of ObiH that was not a substrate of the ScADH. […] With this evidence as well as well-aligned, predicted AlphaFold structures, we assumed the impact of the SUMO tag would be minimal for all TTAs screened and moved forward with additional enzyme characterization.

B1: PbTTA: L-threonine transaldolase, SEQ ID NO: 16, Parachlamydiales bacterium, MBN2478762.1 (protein, listed as Parachlamydiales bacterium)
chain: METSLKDFETILHLINKEEIDSNDTIHMTANENIMSKLSKHYLKSTLSYRYHVGMFDDQKNLTVSRSCLIKNSLMLRCLSPIFLLEQQAREYVKKMFFAEYADFRPLSGMHTVFCILSTLTKPNDRVYVFTTESVGHAATVSLLKSLGRKVSFIPFCEKKLDIDLEKLSKQILIEKPNAILFDFGTPFYPLPIREIREIVGNDVKMIYDASHVLGLIAGGQFQNPLLEGCDVLIGNTHKTFPGPQKGMILYKNKSLGKEIATEIFKSAISAQHTHHAIALYVTIIEMYIHGKEYANQIIKNNHALSQALINEGFKIFKRKNQFSLSHMIAITGDFPIDHHVACADLHNSNISTNSRILYDFPAVRIGVQEVTRKGMKEKDMVQLAKFFKEIILDRKNISSKIKEFNNKFNSIEYSLDEIYEKLF
With B1 the “activity on 2-nitro-benzaldehyde relative to ObiH” value was “comparable to or better than ObiH”.
